{"source": "the supplement of paper PMC9170038", "data": [{"tested_on": "K4 kissing-loop RNA reporter", "test": "apparent KD of K4 kissing-loop reporter; higher = weaker reporter binding", "conditions": "Eterna round: R107; input ligand: arginine 13.2 mM", "experimental": "(§1)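 RNA-MaP round R107: designed RNA switches with theophylline, tryptophan, arginine or FMN aptamers are transcribed on-chip within common flanks. They are titrated with a labelled K4 kissing-loop RNA reporter in RNA-MaP buffer (100 mM Tris pH 7.5, 80 mM KCl, 4 mM MgCl2), without ligand or with the indicated ligand. Median apparent KD per design.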", "units": {"apparent KD of K4 kissing-loop reporter": "nM"}, "values": [{"sequence": "CCCGUUGCGGCGGCCGCCACUGACUUAUUGAUUAGGUUGCCAGUGAUGUUGGCCACCGGUCAAUACAGGACCGGGCCAUAGCGGG [Ceisreatte]", "apparent KD of K4 kissing-loop reporter": 124}, {"sequence": "CAGCGGAGUGAUGUUCUGCUUACUGCGGAUACCAGCUUCGCCAGAGGCCCUUGGCAGCCGGGCGGCUCAGUGAUGUUGGGUUGCU [Same State Theophylline A GF 15]", "apparent KD of K4 kissing-loop reporter": 559}, {"sequence": "UCGCAAGAAUCACUGUGGAGGACCUUGGCCAAGGAUAUCAAAGGAUUGAGAAGGUGGCGCCAAGUGAUGUUUGGAUGCCGGGCAG [theeternabot_exclusion_KL_FMN_A_36]", "apparent KD of K4 kissing-loop reporter": 286}, {"sequence": "AAAUUUAUAUUAGAUACCAGUUUAUUGGAUGUAAAUUAUGACAUGAGUGAUGUUCAUGUAAGCCCUUGGCAGCUGGUAUGGGUUU [KL-XTheo-B22]", "apparent KD of K4 kissing-loop reporter": 119}, {"sequence": "CGAUAGGGAAGUCGAUUGCUCACUGGUAAACGAGGACCGGUACGGCCGCCACUCGGGUCCAGUGAUGUUGGACUUUGUGGCGGGC [Edladian]", "apparent KD of K4 kissing-loop reporter": 99.5}, {"sequence": "ACAAUGAUCAAAGGAUAUCGUAAGUUAUACAUCACGCGAUGAUUCAGAGGCGAGUGAUGUUUGUCUCGAGAAGGUUGGUACCGUC [theeternabot_exclusion_KL_FMN_B_37]", "apparent KD of K4 kissing-loop reporter": 539}, {"sequence": "UGAUAGGACAGAAGGAGCGGGAGUGAUGUUCCCAAAUGGAUAGGUCGACAAAGUCGACCCUCCCAGGUAGGUCGCUGUCCUAUCU [ArgBX 7 #SwitchBubble #StaticStem]", "apparent KD of K4 kissing-loop reporter": 246}, {"sequence": "AUUUGUUUAUGUGAUACCAGACUAAGCAGUGAUGUUGCUUUUAUUUUUGAAUUUUAAAUAGUCCCUUGGCAGCACUAUGUCUGUA [#05 K4 Theophylline B Same State]", "apparent KD of K4 kissing-loop reporter": 147}, {"sequence": "AAACAUCACUGGGAGUGAUGUUCUCAGUGACGAGGACCGGUACGGCCGCCACUCGCGAGAGAUUUAGUCUAGUCUUGACUGCAUU [Excl Tryptophan A V12]", "apparent KD of K4 kissing-loop reporter": 303}, {"sequence": "GAGGUACAGGCGGCCGCCACUAGUGAUGUUAGUGAUGUUAGAUAAAGUAUAUAUCGGCGUGUAGAUAGGACCGGGCCUGAUGGAG [ssrykmullin]", "apparent KD of K4 kissing-loop reporter": 33.6}, {"sequence": "UACAUAUUAUUUAACAUAAAUUUUACAGAAGGAGCGUGAUCAUUCACAGGUAGGUCGCUGAACUAGUGAUGUUAGUUUUAUUUUU [JR_Nu_ExcArginiA_Sub025]", "apparent KD of K4 kissing-loop reporter": 96.1}, {"sequence": "UGACUGGAUGGAAGGAGCGCUAAACUCCUAGUGAUGUUAGGGACAUGAGGCAUAGCCUUGAAGCAGGUAGGUCGCCAUCUAGUCU [FiskerMod 29 - Jieux - Same State - Arginine B]", "apparent KD of K4 kissing-loop reporter": 132}, {"sequence": "AAGCAGUCACUCGCAGCCAUCGAAGAUGGUCGAGGACCGGUACGGCCGCCACUCGGAGUGAUGUUCCGAAGACUGCAAAAUAAAA", "apparent KD of K4 kissing-loop reporter": 259}, {"sequence": "AAGACCUGCAUCGAUACCAGCCCAGUGAUGUUGGGCUGCUCUCCAUGGGUGCCAGACACGGGCCCUUGGCAGCGAGGUAGGGCCC [Zazadilabi]", "apparent KD of K4 kissing-loop reporter": 106}, {"sequence": "CCGGCCCAGCCGGAUACCAGUGCGCCGCAGGGAACGGCGGGCCCAGAGUGAUGUUCGGGACACCCUUGGCAGCCGCCUGGGUCGC [#2 Same State - Theophylline B Attempt #27 (HarryS)]", "apparent KD of K4 kissing-loop reporter": 197}, {"sequence": "AAUAAUGGAGUGAUGUUCCAGUAAUGGGAUACCAGACAUGAAAAUGUCCCUUGGCAGCUCAAAGGUCUAGUGAUGUUAUAAAGAA [KL-SSTheo-A6]", "apparent KD of K4 kissing-loop reporter": 510}, {"sequence": "UGGAUAUAGUGAUGUUAUAUAGAGAGUGAUACCAGUUUAGAGAAGAACCCUUGGCAGCAUAAAGAAGUAUCAUUAGAGAAGAAUG [ExTheophyl.Ao]", "apparent KD of K4 kissing-loop reporter": 216}, {"sequence": "AAGUUGAACUGAAGGAGCGAGAAAUAGAAUGUAAGAAUAUAUGCUAGUGAUGUUAGAAAUUCUCAGGUAGGUCGCAGUAAGAAUU [V1]", "apparent KD of K4 kissing-loop reporter": 357}, {"sequence": "AUUUUUUACAGAAGGAGCGUGUUAUAAUAAUCAUAUUGCUUAGCGAGUGAUGUUCGCUUUACACAGGUAGGUCGCUGUUUAUUUA [JR_Nu_ExcArginiB_Sub029]", "apparent KD of K4 kissing-loop reporter": 168}, {"sequence": "GGGUCAGCGCGAAGGAGCGCCCUGACAGGUUGCUGCCGUGGGCAGUGAUGUUGCUCAGUCCGGCAGGUAGGUCGCGUGCUGACCC", "apparent KD of K4 kissing-loop reporter": 151}, {"sequence": "CGACUAGUCUUGCAACCCUAGUCGAUAUGCUAGGAUAUCAGGAAACUGAGAAGGAGUUUACUUGCAGUGAUGUUGCAAGAAUAAU [KL-SSFMN-A10]", "apparent KD of K4 kissing-loop reporter": 153}, {"sequence": "CUAUAAGUGCCGAGUGAUGUUCGGCCAAUACGAGGACCGGUACGGCCGCCACUCGGUCAGUGGGUGCCCACCGGGCAUGGCUGAC [Cecezaa]", "apparent KD of K4 kissing-loop reporter": 217}, {"sequence": "AGGUUUUGAUUAGGAUAUGCACUGAGGAGGAGAAUAUAGUGAUGUUAUAUAAGAGGAAUUAGUAGAGUAGAAGGGAUUGAGGUUU [SSFMNB.T]", "apparent KD of K4 kissing-loop reporter": 167}, {"sequence": "AGAGAUAUAUGAGGAUAUGGGUUUGUUAAUGAGUUAGUUUUAGUGUUGUUUGGUUAGUGAUGUUAUUUAGAAGGCGUGAGUGAUG [aatrmullin]", "apparent KD of K4 kissing-loop reporter": 62.3}, {"sequence": "UGUAUGUGAUUUGAUACCAGACCAGCUGGUGGAAACUGAGUGAUGUUCAGUUAGGUUUGGGUCCCUUGGCAGCAAAUCGCAUACU [KL-SSTheoB28]", "apparent KD of K4 kissing-loop reporter": 119}]}, {"tested_on": "K4 kissing-loop RNA reporter", "test": "apparent KD of K4 kissing-loop reporter; higher = weaker reporter binding", "conditions": "Eterna round: R107; input ligand: none", "experimental": "as §1", "units": {"apparent KD of K4 kissing-loop reporter": "nM"}, "values": [{"sequence": "GCAACAUUGGCAGGAUAUCCUUCUCAGUGAUGUUGAGGGUUCAGCUAACGAAAGUUAGUUGUACCAGGAGAAGGGCUAAUGUUGC [Omei KL FMN B SS A v7]", "apparent KD of K4 kissing-loop reporter": 1420}, {"sequence": "GUAGAUAGGCUACAUCUCUAGUCUAAACACUAGGAUAUCAGGAAACUGAGAAGGAGUGUCAUUGGAGUGAUGUUCCAAGAAUAAU [KL-SSFMN-A17]", "apparent KD of K4 kissing-loop reporter": 185}, {"sequence": "GGCGUCUAAAAGUGCCUAGAGAGAAAGGAUACCAGCACCCGGCGGUGCCCUUGGCAGCCUAGCCCAGUGAUGUUGGGUCCUCUAA [Lasorian]", "apparent KD of K4 kissing-loop reporter": 312}, {"sequence": "AAGUACACGAUAGUGUACACCUAGUGAUGUUAGGAUAUGCAGAUAUGCAGAAGGAACAAGUCAUCUGACAAUAGUCGGAUGACAA [FmnAX 6 #OpenEnded #K4Early]", "apparent KD of K4 kissing-loop reporter": 109}, {"sequence": "UGCAGUGAUGUUGCGAGUGGCAGAUACGAAGGAGCGUGGUGAGACACAGGUAGGUCGCGUAUCGAAAUUGCUGUCACUAAAAUGC [#8]", "apparent KD of K4 kissing-loop reporter": 501}, {"sequence": "UAAAAUAAAUAAUAGAGAUAAUUACUCGAAGGAGCGACGAAUUCGUCAGGUAGGUCGCGAGUGAUGUUCGCAAAUAUUAUCUCAU [AK3 Exc Arginine A]", "apparent KD of K4 kissing-loop reporter": 295}, {"sequence": "CGUUUAUAGCAGGAUACCAGUACCCAUUAUGUACGUUUAUAGUAGAGUGAUGUUCUAAAGUACCCUUGGCAGCUUCCUGUGUCCC [ExTheophylB.Ab]", "apparent KD of K4 kissing-loop reporter": 190}, {"sequence": "UAUCUAUGCUCGGCCGCCACUAGGACCGGGAUCUCUCUAGUGAUGUUAGUCUGAUCGGCCGCCACUAGGACCGGGAGUGUAGAUA [KL-SSTryp-B15 #DoubleAptamer]", "apparent KD of K4 kissing-loop reporter": 91.2}, {"sequence": "CCCGUUGCGGCGGCCGCCACUGACUUAUUGAUUAGGUUGCCAGUGAUGUUGGCCACCGGUCAAUACAGGACCGGGCCAUAGCGGG [Ceisreatte]", "apparent KD of K4 kissing-loop reporter": 128}, {"sequence": "CAGCGGAGUGAUGUUCUGCUUACUGCGGAUACCAGCUUCGCCAGAGGCCCUUGGCAGCCGGGCGGCUCAGUGAUGUUGGGUUGCU [Same State Theophylline A GF 15]", "apparent KD of K4 kissing-loop reporter": 876}, {"sequence": "UCGCAAGAAUCACUGUGGAGGACCUUGGCCAAGGAUAUCAAAGGAUUGAGAAGGUGGCGCCAAGUGAUGUUUGGAUGCCGGGCAG [theeternabot_exclusion_KL_FMN_A_36]", "apparent KD of K4 kissing-loop reporter": 293}, {"sequence": "AAAUUUAUAUUAGAUACCAGUUUAUUGGAUGUAAAUUAUGACAUGAGUGAUGUUCAUGUAAGCCCUUGGCAGCUGGUAUGGGUUU [KL-XTheo-B22]", "apparent KD of K4 kissing-loop reporter": 127}, {"sequence": "CGAUAGGGAAGUCGAUUGCUCACUGGUAAACGAGGACCGGUACGGCCGCCACUCGGGUCCAGUGAUGUUGGACUUUGUGGCGGGC [Edladian]", "apparent KD of K4 kissing-loop reporter": 104}, {"sequence": "ACAAUGAUCAAAGGAUAUCGUAAGUUAUACAUCACGCGAUGAUUCAGAGGCGAGUGAUGUUUGUCUCGAGAAGGUUGGUACCGUC [theeternabot_exclusion_KL_FMN_B_37]", "apparent KD of K4 kissing-loop reporter": 521}, {"sequence": "UGAUAGGACAGAAGGAGCGGGAGUGAUGUUCCCAAAUGGAUAGGUCGACAAAGUCGACCCUCCCAGGUAGGUCGCUGUCCUAUCU [ArgBX 7 #SwitchBubble #StaticStem]", "apparent KD of K4 kissing-loop reporter": 219}, {"sequence": "AUUUGUUUAUGUGAUACCAGACUAAGCAGUGAUGUUGCUUUUAUUUUUGAAUUUUAAAUAGUCCCUUGGCAGCACUAUGUCUGUA [#05 K4 Theophylline B Same State]", "apparent KD of K4 kissing-loop reporter": 135}]}]}
